Laboratory results from patent US20120082622A1 (Janssen / Centocor, published 2012).

Target: T1, CCR4 endogenously expressed on CCRF-CEM cells (UniProt P51679 1-360, limits assumed)
T1 sequence (looked up): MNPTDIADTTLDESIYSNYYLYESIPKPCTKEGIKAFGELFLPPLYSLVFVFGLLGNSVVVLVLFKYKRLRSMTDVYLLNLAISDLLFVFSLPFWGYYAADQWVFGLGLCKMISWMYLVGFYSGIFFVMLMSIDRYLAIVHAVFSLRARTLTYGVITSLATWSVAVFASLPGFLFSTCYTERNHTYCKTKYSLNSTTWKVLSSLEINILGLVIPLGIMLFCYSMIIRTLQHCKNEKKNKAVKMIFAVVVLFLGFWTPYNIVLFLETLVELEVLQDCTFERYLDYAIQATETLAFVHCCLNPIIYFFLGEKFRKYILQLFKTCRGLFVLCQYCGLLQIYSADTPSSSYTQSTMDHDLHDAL
Assay: cell-based or functional assay

calcium flux of CCRF-CEM cells (Fluo-8 NW dye fluorescence), EC50: 0.665 ng/mL
B1: mature Macaca fascicularis CCL17 (cynoCCL17), refolded from E. coli inclusion bodies (ligand)
chain: ARGTNVGRECCLKYFKGAIPLRKLKTWYQTSEDCSRDAIVFVTVQNKAICSDPNDKKVKKALKYLQSL
